Data: patent US20220396631A1 (Novartis, published 2022)
Positions count from the first letter of the chain named.

T1: human BCMA (human, UniProt Q02223 1-54, limits assumed)
T1 construct: also called B-cell maturation antigen; TNFRSF17
T1 sequence (looked up): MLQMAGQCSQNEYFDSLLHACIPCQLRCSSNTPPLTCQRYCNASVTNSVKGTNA

T2: Human CD2 (human, UniProt P06729 25-209)
T2 construct: also called recombinant human CD2; CD2 extracellular domain
T2 sequence: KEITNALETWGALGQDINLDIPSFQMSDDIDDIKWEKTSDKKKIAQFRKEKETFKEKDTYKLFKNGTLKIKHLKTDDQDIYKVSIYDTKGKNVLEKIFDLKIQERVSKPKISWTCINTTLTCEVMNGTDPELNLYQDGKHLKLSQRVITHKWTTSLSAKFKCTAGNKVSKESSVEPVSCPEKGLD

B1: H2/L2-36 (antibody, V domains shown)
VH: QAQLQSSGGGVVQPGRSLRLSCAASGFTFSSYGMHWVRQAPGKGLEWVAVISYKGSNKYYADSVKGRFTISRDNSKNTLYLQMNSLRAEDTAVYYCGGSGYALHDDYYGLDVWGQGTLVTVSS
VL: QSALTQPASVSGSPGQSITISCTGTSSDVGGYNYVSWYQQHPGKAPKLMIYEVSNRLRGVSNRFSGSKFGNTASLTISGLQAEDEADYYCSSYTSSSTLYVFGSGTKVTVL
notes: AB3 family
B2: H2/L2-22 (antibody, V domains shown)
VH: B1 VH with G8E, K54H
VL: B1 VL with R58S
notes: AB3 family
B3: H3-6 (antibody, V domains shown)
VH: B1 VH with S6R, K54D, G55D, S56A, N57H, D106Q, Y108K, G109P, L110V
VL: B1 VL with T98A
notes: AB3 family
B4: H3-10 (antibody, V domains shown)
VH: B1 VH with A2V, K54N, G55D, S56L, A102E, L103F, H104Q, D105G
VL: B1 VL
notes: AB3 family
B5: H3-7 (antibody, V domains shown)
VH: B1 VH with A2V, G8E, F29L, K54T, A102E, L103F, D105E
VL: B1 VL
notes: AB3 family
B6: H3-4 (antibody, V domains shown)
VH: B1 VH with A2V, S6G, K54D, G55D, S56A, N57H, D106Q, Y108K, G109P, L110V
VL: B1 VL with T98A
notes: AB3 family
B7: H3-14 (antibody, V domains shown)
VH: B1 VH with A2V, S6G, K54D, G55D, S56A, N57H, D106Q, Y108K, G109P, L110V
VL: B1 VL with R58S, T98A
notes: AB3 family
B8: PI-61 (antibody, V domains shown)
VH: B1 VH with A2V, S6E, K54D
VL: B1 VL with E52D, L57P, R58S, F69S
notes: also called parental PI-61 antibody; P1-61
B9: H2/L2-68 (antibody, V domains shown)
VH: B1 VH with G8E, K54R, S56F, L110Q
VL: B1 VL with E52D, R58S
notes: AB3 family
B10: H3-5 (antibody, V domains shown)
VH: B1 VH with A2V, S6G, K54T, S56A, A102N
VL: B1 VL with R58S
notes: AB3 family
B11: AB3 (antibody, V domains shown)
VH: B1 VH with A2V, Q5V, S6E, F29V, K54T
VL: B1 VL with E52D, F69S, T98A
notes: AB3 family
B12: H3-1 (antibody, V domains shown)
VH: B1 VH with A2V, S6G, K54D, G55D, S56A, N57H, D106Q, Y108K, G109P, L110V
VL: B1 VL
notes: AB3 family
B13: H3-12 (antibody, V domains shown)
VH: B1 VH with G8E, K54D, G55E, A102E, L103V, H104D, D105Q
VL: B1 VL
notes: AB3 family
B14: H3-15 (antibody, V domains shown)
VH: B1 VH with A2V, S6G, F29V, K54D, G55D, S56A, N74S, L103Y, H104D, D105G
VL: B1 VL with R58G, T98A
notes: AB3 family
B15: H2/L2-80 (antibody, V domains shown)
VH: B1 VH with A2V, K54T
VL: B1 VL with E52D, L57A, R58W, T98A
notes: AB3 family
B16: H3-2 (antibody, V domains shown)
VH: QAQLQESEGGVVQPGGSLRLSCAASGFTFSSYGMHWVRQAPGKGLEWVAVISYNDLNKYYADSVKGRFTISRDNSKNTLYLQMNSLRAEDTAVYYCGGSGYALHDFQDPTDVWGQGTLVTVSS
VL: B1 VL
notes: AB3 family
B17: H2/L2-18 (antibody, V domains shown)
VH: B1 VH with S6G, N57H
VL: B1 VL with E52D, L57P, R58W
notes: AB3 family
B18: H2/L2-83 (antibody, V domains shown)
VH: B1 VH with S6G
VL: B1 VL
notes: AB3 family
B19: H2/L2-47 (antibody, V domains shown)
VH: B1 VH with A2V, G8E
VL: B1 VL with E52D, L57P, R58W
notes: AB3 family
B20: H2/L2-88 (antibody, V domains shown)
VH: B1 VH with A2V, G8E
VL: B1 VL with T98A
notes: AB3 family
B21: H3-11 (antibody, V domains shown)
VH: B1 VH with A2V, G8E, K54N, G55D, S56A, A102E, H104R
VL: B1 VL
notes: AB3 family
B22: H3-9 (antibody, V domains shown)
VH: B1 VH with A2V, S6G, K54D, G55D, S56A, N57H, D106Q, Y108K, G109P, L110V
VL: B1 VL with D87Y
notes: AB3 family
B23: H2/L2-20 (antibody, V domains shown)
VH: B1 VH with F29V, K54T
VL: B1 VL with E52D, T98A
notes: AB3 family
B24: H3-3 (antibody, V domains shown)
VH: B1 VH with A2V, F29V, K54S, D106Q, Y108K, G109P, L110V
VL: B1 VL
notes: AB3 family
B25: H3-13 (antibody, V domains shown)
VH: B16 VH with A2V, E8G, G16R, N54D, L56A, N57H, F106Q, Q107Y, D108K, T110V
VL: B1 VL
notes: AB3 family
B26: H3-8 (antibody, V domains shown)
VH: B16 VH with E6G, G16R, N54D, L56A, N57H, F106Q, Q107Y, D108K, T110V
VL: B1 VL
notes: AB3 family
B27: CD58_IgV (ligand)
chain: SQQIYGVVYGNVTFHVPSNVPLKEVLWKKQKDKVAELENSEFRAFSSFKNRVYLDTVSGSLTIYNLTSSDEDEYEMESPNITDTMKFFLYVLESGGGGSHHHHHHHH
notes: Recombinant, made in HEK293 cells; also called CD58 domain 1; IgV domain of CD58 (wild type)
B28: IgV V54C_G88C (ligand)
chain: B27 chain with V25C, G59C
notes: Disulfide-stabilised variant
B29: IgV V45C_M105C (ligand)
chain: B27 chain with V16C, M76C
notes: Disulfide-stabilised variant
B30: IgV V45C_M114C (ligand)
chain: B27 chain with V16C, M85C
notes: Disulfide-stabilised variant
B31: CD58 Full ECD (ligand)
chain: SQQIYGVVYGNVTFHVPSNVPLKEVLWKKQKDKVAELENSEFRAFSSFKNRVYLDTVSGSLTIYNLTSSDEDEYEMESPNITDTMKFFLYVLESLPSPTLTCALTNGSIEVQCMIPEHYNSHRGLIMYSWDCPMEQCKRNSTSIYFKMENDLPQKIQCTLSNPLFNTTSSIILTTCIPSSGHSRHRGGGGSHHHHHHHH
notes: Recombinant, made in HEK293 cells

Experiments:
[1] = target: T1, human BCMA; assay: affinity maturation of PI-61
[2] = target: T1, human BCMA; assay: phage display selection
[3] = target: T2, Human CD2; assay: isothermal titration calorimetry; 100 uM CD2 titrated into 10 uM CD58 variant in HBS
Description: To ensure the binding affinity remained uncompromised by the additional of the stabilizing disulfide variance, isothermal calorimetry (ITC) was performed on the resulting recombinant CD58 proteins to determine their apparent KD and binding stoicheometry (n) to recombinant human CD2.
Briefly, recombinant human CD2 and recombinant human CD58 variants were dialyzed into HEPES-buffered saline (HBS). CD2 was diluted to final concentration of 100 μM, CD58 variants were diluted to 10 μM. CD2 was titrated into 10 μM of CD58 variants via multiple injections and ΔH (kcal/mole) determined using a MicroCal VP-ITC isothermal titration calorimeter (Malvern). Titrations of CD2 into HBS were used as a reference and KD and n determined from the resulting data.

Binder	binding result [1]	also measured
B1	binds	
B2	binds	
B3	binds	
B4	binds	
B5	binds	
B6	binds	
B7	binds	
B8		binding result [2]: binds
B9	binds	
B10	binds	
B11	binds	
B12	binds	
B13	binds	
B14	binds	
B15	binds	
B16	binds	

Binder	binding result [1]	also measured
B17	binds	
B18	binds	
B19	binds	
B20	binds	
B21	binds	
B22	binds	
B23	binds	
B24	binds	
B25	binds	
B26	binds	
B27		Kd [3]: 610 nM; n (binding stoichiometry) [3]: 0.96
B28		Kd [3]: 600 nM; n (binding stoichiometry) [3]: 0.83
B29		Kd [3]: 880 nM; n (binding stoichiometry) [3]: 0.97
B30		Kd [3]: 380 nM; n (binding stoichiometry) [3]: 0.88
B31		n (binding stoichiometry) [3]: 0.92
